The values below come from paper PMC3641820.

The target of this assay is Recombinant Borrelia burgdorferi HtrA (HtrABb, BB0104) with intact N-terminal His-tag (Borrelia burgdorferi strain B31A3). Description: SEC. In general terms: In gel filtration, larger molecules generally elute earlier.

Turning to “Recombinant Borrelia burgdorferi HtrA (HtrABb, BB0104) with intact N-terminal His-tag (enzyme)”, the stoichiometry N is 3.

For orientation: stoichiometry N means the number of molecules, sites or subunits per partner or assembly.
